From US20130066046A1

What was measured:
[1] = target: human serum albumin (human) (UniProt P02768); test: annotation in the curve's label on the competitive ELISA plot; the sheet does not say how this Kd was obtained (text paragraph 46 speaks of a reported Kd ~1x10^-9 M)
[2] = target: human serum albumin (human) (UniProt P02768); test: competitive ELISA: soluble binding protein competes with plate-immobilised single maximum moiety for biotinylated human serum albumin, streptavidin-peroxidase readout
[3] = target: human serum albumin (human) (UniProt P02768); test: SPR (Biacore), HSA immobilised on CM5 chip, 40 nM, mean+/-SD, N=4
[4] = target: human serum albumin (human) (UniProt P02768); test: flow cytometry, binding protein immobilised on beads, fluorescein labeled albumin (Illustration 1.5)
[5] = target: human serum albumin (human) (UniProt P02768); test: competitive ELISA, soluble construct against immobilised binding protein for biotinylated HSA (Illustration 1.2)
[6] = target: human serum albumin (human) (UniProt P02768); test: competitive ELISA, slope around the 50% inhibition point (Illustration 1.2)
[7] = target: human serum albumin (human) (UniProt P02768); test: SPR (Biacore), HSA immobilised on CM5 chip, limited number of replicates
[8] = target: human serum albumin (human) (UniProt P02768); test: flow cytometry on beads, ratio against the single maximum moiety (Illustration 1.5)
[9] = target: human serum albumin (human) (UniProt P02768); test: SPR (Biacore), HSA immobilised on CM5 chip
[10] = target: human serum albumin (human) (UniProt P02768); test: competitive ELISA, ratio against construct 1 (Illustration 1.2)
[11] = target: human IgG (from human serum; human immunoglobin G standard); test: extraction from diluted human serum with coated silica beads, gel/blot comparison with standards (Illustration 2.2)
[12] = target: IgG (biotinylated); test: competitive ELISA, ratio against one maximum domain (Illustration 2.1)
[13] = target: IgG (biotinylated); test: competitive ELISA, soluble protein against immobilised two-moiety cassette for biotinylated IgG (Illustration 2.1)
[14] = target: IgG (biotinylated); test: competitive ELISA, slope around the 50% inhibition point (Illustration 2.1)

Question: How did the Kd [1] turn out when “native material analogous to that of Sjöbring et al. (1991), streptococcal protein G” was run?
Answer: The Kd was 10 nM.

Question: And the IC50 (read off the curve) (pmoles per well) [2]?
Answer: The IC50 (read off the curve) (pmoles per well) was 10.

Question: And the Kd [3]?
Answer: Its Kd is 0.7 nM.

Question: And the kon [3]?
Answer: Its kon is 123000 M⁻¹ s⁻¹.

B1: Construct "2" (functional cassette with two maximum moieties for human serum albumin) (designed binder, part only; not given: spacer and terminal segment, not shown: small tags and cut ends)
chain, part: AAALDQAKQAALKEFDRYGVSNYYKNLINKAKTVEGIMELQAQVVESAKKARISEATDGLSDFLKSQTSAEDTLKSIKLSEAKEMAIRELDAQGVSDFYKNKINNAKTVEGVVALKDLILNSLAAALDQAKQAALKEFDRYGVSNYYKNLINKAKTVEGIMELQAQVVESAKKARISEATDGLSDFLKSQTSAEDTLKSIKLSEAKEMAIRELDAQGVSDFYKNKINNAKTVEGVVALKDLILNSL
Question: Which results are given for B1?
Answer: Kd [4]: 160 nM; IC50 [5]: 15 nM; rate of change [6]: 8.5; Kd [7]: < 0.01 nM; koff [7]: < 1e-05 s⁻¹; kon [7]: 300000 M⁻¹ s⁻¹; F (ratio of apparent Kd, two maximum moieties / one maximum moiety) [8]: 0.67; half-life [9]: 7410 days; R (ratio of 50% inhibition point, two maximum moieties / one maximum moiety) [10]: 0.4; S (ratio of rate of change, two maximum moieties / one maximum moiety) [10]: 1.7

B2: functional cassette with two maximum moieties (six minimum moieties) for IgG (designed binder)
chain: LGIDPFTALPKTDTYKLILNGKTLKGETTTEAVDAATAEKVFKQYANDNGVDGEWTYDDATKTFTVTEKPEVIDASELTPAVTTYKLVINGKTLKGETTTEAVDAATAEKVFKQYANDNGVDGEWTYDDATKTFTVTEKPEVIDASELTPAVTTYKLVINGKTLKGETTTKAVDAETAEKAFKQYANDNGVDGVWTYDDATKTFTVTEMVTESRALPKTDTYKLILNGKTLKGETTTEAVDAATAEKVFKQYANDNGVDGEWTYDDATKTFTVTEKPEVIDASELTPAVTTYKLVINGKTLKGETTTEAVDAATAEKVFKQYANDNGVDGEWTYDDATKTFTVTEKPEVIDASELTPAVTTYKLVINGKTLKGETTTKAVDAETAEKAFKQYANDNGVDGVWTYDDATKTFTVTEMVTEKGELKLCITGDALVALPEGES
Question: B2 was tested. Which percent of IgG extracted [11] did it give?
Answer: The percent of IgG extracted was over 99%.

Question: And the R (ratio of 50% inhibition point, two maximum moieties / one maximum moiety) [12]?
Answer: Its R (ratio of 50% inhibition point, two maximum moieties / one maximum moiety) is 0.6.

Question: What about the S (ratio of rate of change, two maximum moieties / one maximum moiety) [12] of the same molecule?
Answer: The S (ratio of rate of change, two maximum moieties / one maximum moiety) was 1.6.

Question: And the IC50 [13]?
Answer: The IC50 was 1 nM.

Question: What about the rate of change [14] of the same molecule?
Answer: Its rate of change is 50.
